Reference: patent publication US20250011410A1 (INVETX, published 2025)
Where “and” joins values, the source holds several entries; their conditions need not be identical. Equal values may be shown once.

B1: felinized clone 101 Fab-SASA variant D104E (VH) (Fab, V domains shown, not shown: small tags and cut ends)
VH: DVQLVESGGDLVKPGGSLRLTCVASGLSLTSSSMSWVRQAPGKGLQWVSTIYSNGGTYYTDSVKGRFTISKDNAENTLYLQMNNLKTEDTATYYCASIYYYDAEYLHWYFDFWGQGALVTVSS
VL: EIQMTQSPTSLSASVGDRVTITCRASEGISNNLSWYQQTPGKAPKLLIYATSNLHSGVPSRFSGSGSGTDFTLTISSLQPEDFATYYCQQGYKWPLTFGGGTKLEITR
B2: felinized clone 101 Fab-SASA variant D104K (VH) (Fab, V domains shown, not shown: small tags and cut ends)
VH: DVQLVESGGDLVKPGGSLRLTCVASGLSLTSSSMSWVRQAPGKGLQWVSTIYSNGGTYYTDSVKGRFTISKDNAENTLYLQMNNLKTEDTATYYCASIYYYDAKYLHWYFDFWGQGALVTVSS
VL: EIQMTQSPTSLSASVGDRVTITCRASEGISNNLSWYQQTPGKAPKLLIYATSNLHSGVPSRFSGSGSGTDFTLTISSLQPEDFATYYCQQGYKWPLTFGGGTKLEITR
B3: felinized clone 101 Fab-SASA variant D104N (VH) (Fab, V domains shown, not shown: small tags and cut ends)
VH: DVQLVESGGDLVKPGGSLRLTCVASGLSLTSSSMSWVRQAPGKGLQWVSTIYSNGGTYYTDSVKGRFTISKDNAENTLYLQMNNLKTEDTATYYCASIYYYDANYLHWYFDFWGQGALVTVSS
VL: EIQMTQSPTSLSASVGDRVTITCRASEGISNNLSWYQQTPGKAPKLLIYATSNLHSGVPSRFSGSGSGTDFTLTISSLQPEDFATYYCQQGYKWPLTFGGGTKLEITR
B4: felinized clone 101 Fab-SASA variant D104Q (VH) (Fab, V domains shown, not shown: small tags and cut ends)
VH: DVQLVESGGDLVKPGGSLRLTCVASGLSLTSSSMSWVRQAPGKGLQWVSTIYSNGGTYYTDSVKGRFTISKDNAENTLYLQMNNLKTEDTATYYCASIYYYDAQYLHWYFDFWGQGALVTVSS
VL: EIQMTQSPTSLSASVGDRVTITCRASEGISNNLSWYQQTPGKAPKLLIYATSNLHSGVPSRFSGSGSGTDFTLTISSLQPEDFATYYCQQGYKWPLTFGGGTKLEITR
B5: felinized clone 101 Fab-SASA variant F112E (VH) (Fab, V domains shown, not shown: small tags and cut ends)
VH: DVQLVESGGDLVKPGGSLRLTCVASGLSLTSSSMSWVRQAPGKGLQWVSTIYSNGGTYYTDSVKGRFTISKDNAENTLYLQMNNLKTEDTATYYCASIYYYDADYLHWYFDEWGQGALVTVSS
VL: EIQMTQSPTSLSASVGDRVTITCRASEGISNNLSWYQQTPGKAPKLLIYATSNLHSGVPSRFSGSGSGTDFTLTISSLQPEDFATYYCQQGYKWPLTFGGGTKLEITR
B6: felinized clone 101 Fab-SASA variant F112H (VH) (Fab, V domains shown, not shown: small tags and cut ends)
VH: DVQLVESGGDLVKPGGSLRLTCVASGLSLTSSSMSWVRQAPGKGLQWVSTIYSNGGTYYTDSVKGRFTISKDNAENTLYLQMNNLKTEDTATYYCASIYYYDADYLHWYFDHWGQGALVTVSS
VL: EIQMTQSPTSLSASVGDRVTITCRASEGISNNLSWYQQTPGKAPKLLIYATSNLHSGVPSRFSGSGSGTDFTLTISSLQPEDFATYYCQQGYKWPLTFGGGTKLEITR
B7: felinized clone 101 Fab-SASA variant F112N (VH) (Fab, V domains shown, not shown: small tags and cut ends)
VH: DVQLVESGGDLVKPGGSLRLTCVASGLSLTSSSMSWVRQAPGKGLQWVSTIYSNGGTYYTDSVKGRFTISKDNAENTLYLQMNNLKTEDTATYYCASIYYYDADYLHWYFDNWGQGALVTVSS
VL: EIQMTQSPTSLSASVGDRVTITCRASEGISNNLSWYQQTPGKAPKLLIYATSNLHSGVPSRFSGSGSGTDFTLTISSLQPEDFATYYCQQGYKWPLTFGGGTKLEITR
B8: felinized clone 101 Fab-SASA variant F112P (VH) (Fab, V domains shown, not shown: small tags and cut ends)
VH: DVQLVESGGDLVKPGGSLRLTCVASGLSLTSSSMSWVRQAPGKGLQWVSTIYSNGGTYYTDSVKGRFTISKDNAENTLYLQMNNLKTEDTATYYCASIYYYDADYLHWYFDPWGQGALVTVSS
VL: EIQMTQSPTSLSASVGDRVTITCRASEGISNNLSWYQQTPGKAPKLLIYATSNLHSGVPSRFSGSGSGTDFTLTISSLQPEDFATYYCQQGYKWPLTFGGGTKLEITR
B9: felinized clone 101 Fab-SASA variant G55R (VH) (Fab, V domains shown, not shown: small tags and cut ends)
VH: DVQLVESGGDLVKPGGSLRLTCVASGLSLTSSSMSWVRQAPGKGLQWVSTIYSNRGTYYTDSVKGRFTISKDNAENTLYLQMNNLKTEDTATYYCASIYYYDADYLHWYFDFWGQGALVTVSS
VL: EIQMTQSPTSLSASVGDRVTITCRASEGISNNLSWYQQTPGKAPKLLIYATSNLHSGVPSRFSGSGSGTDFTLTISSLQPEDFATYYCQQGYKWPLTFGGGTKLEITR
B10: felinized clone 101 Fab-SASA variant G55Y (VH) (Fab, V domains shown, not shown: small tags and cut ends)
VH: DVQLVESGGDLVKPGGSLRLTCVASGLSLTSSSMSWVRQAPGKGLQWVSTIYSNYGTYYTDSVKGRFTISKDNAENTLYLQMNNLKTEDTATYYCASIYYYDADYLHWYFDFWGQGALVTVSS
VL: EIQMTQSPTSLSASVGDRVTITCRASEGISNNLSWYQQTPGKAPKLLIYATSNLHSGVPSRFSGSGSGTDFTLTISSLQPEDFATYYCQQGYKWPLTFGGGTKLEITR
B11: felinized clone 101 Fab-SASA variant H55I (VL) (Fab, V domains shown, not shown: small tags and cut ends)
VH: DVQLVESGGDLVKPGGSLRLTCVASGLSLTSSSMSWVRQAPGKGLQWVSTIYSNGGTYYTDSVKGRFTISKDNAENTLYLQMNNLKTEDTATYYCASIYYYDADYLHWYFDFWGQGALVTVSS
VL: EIQMTQSPTSLSASVGDRVTITCRASEGISNNLSWYQQTPGKAPKLLIYATSNLISGVPSRFSGSGSGTDFTLTISSLQPEDFATYYCQQGYKWPLTFGGGTKLEITR
B12: felinized clone 101 Fab-SASA variant H55L (VL) (Fab, V domains shown, not shown: small tags and cut ends)
VH: DVQLVESGGDLVKPGGSLRLTCVASGLSLTSSSMSWVRQAPGKGLQWVSTIYSNGGTYYTDSVKGRFTISKDNAENTLYLQMNNLKTEDTATYYCASIYYYDADYLHWYFDFWGQGALVTVSS
VL: EIQMTQSPTSLSASVGDRVTITCRASEGISNNLSWYQQTPGKAPKLLIYATSNLLSGVPSRFSGSGSGTDFTLTISSLQPEDFATYYCQQGYKWPLTFGGGTKLEITR
B13: felinized clone 101 Fab-SASA variant H55M (VL) (Fab, V domains shown, not shown: small tags and cut ends)
VH: DVQLVESGGDLVKPGGSLRLTCVASGLSLTSSSMSWVRQAPGKGLQWVSTIYSNGGTYYTDSVKGRFTISKDNAENTLYLQMNNLKTEDTATYYCASIYYYDADYLHWYFDFWGQGALVTVSS
VL: EIQMTQSPTSLSASVGDRVTITCRASEGISNNLSWYQQTPGKAPKLLIYATSNLMSGVPSRFSGSGSGTDFTLTISSLQPEDFATYYCQQGYKWPLTFGGGTKLEITR
B14: felinized clone 101 Fab-SASA variant K64D (VH) (Fab, V domains shown, not shown: small tags and cut ends)
VH: DVQLVESGGDLVKPGGSLRLTCVASGLSLTSSSMSWVRQAPGKGLQWVSTIYSNGGTYYTDSVDGRFTISKDNAENTLYLQMNNLKTEDTATYYCASIYYYDADYLHWYFDFWGQGALVTVSS
VL: EIQMTQSPTSLSASVGDRVTITCRASEGISNNLSWYQQTPGKAPKLLIYATSNLHSGVPSRFSGSGSGTDFTLTISSLQPEDFATYYCQQGYKWPLTFGGGTKLEITR
B15: felinized clone 101 Fab-SASA variant K64E (VH) (Fab, V domains shown, not shown: small tags and cut ends)
VH: DVQLVESGGDLVKPGGSLRLTCVASGLSLTSSSMSWVRQAPGKGLQWVSTIYSNGGTYYTDSVEGRFTISKDNAENTLYLQMNNLKTEDTATYYCASIYYYDADYLHWYFDFWGQGALVTVSS
VL: EIQMTQSPTSLSASVGDRVTITCRASEGISNNLSWYQQTPGKAPKLLIYATSNLHSGVPSRFSGSGSGTDFTLTISSLQPEDFATYYCQQGYKWPLTFGGGTKLEITR
B16: felinized clone 101 Fab-SASA variant L54H (VL) (Fab, V domains shown, not shown: small tags and cut ends)
VH: DVQLVESGGDLVKPGGSLRLTCVASGLSLTSSSMSWVRQAPGKGLQWVSTIYSNGGTYYTDSVKGRFTISKDNAENTLYLQMNNLKTEDTATYYCASIYYYDADYLHWYFDFWGQGALVTVSS
VL: EIQMTQSPTSLSASVGDRVTITCRASEGISNNLSWYQQTPGKAPKLLIYATSNHHSGVPSRFSGSGSGTDFTLTISSLQPEDFATYYCQQGYKWPLTFGGGTKLEITR
B17: felinized clone 101 Fab-SASA variant N31Q (VL) (Fab, V domains shown, not shown: small tags and cut ends)
VH: DVQLVESGGDLVKPGGSLRLTCVASGLSLTSSSMSWVRQAPGKGLQWVSTIYSNGGTYYTDSVKGRFTISKDNAENTLYLQMNNLKTEDTATYYCASIYYYDADYLHWYFDFWGQGALVTVSS
VL: EIQMTQSPTSLSASVGDRVTITCRASEGISQNLSWYQQTPGKAPKLLIYATSNLHSGVPSRFSGSGSGTDFTLTISSLQPEDFATYYCQQGYKWPLTFGGGTKLEITR
B18: felinized clone 101 Fab-SASA variant N53H (VL) (Fab, V domains shown, not shown: small tags and cut ends)
VH: DVQLVESGGDLVKPGGSLRLTCVASGLSLTSSSMSWVRQAPGKGLQWVSTIYSNGGTYYTDSVKGRFTISKDNAENTLYLQMNNLKTEDTATYYCASIYYYDADYLHWYFDFWGQGALVTVSS
VL: EIQMTQSPTSLSASVGDRVTITCRASEGISNNLSWYQQTPGKAPKLLIYATSHLHSGVPSRFSGSGSGTDFTLTISSLQPEDFATYYCQQGYKWPLTFGGGTKLEITR

These binders were tested against T1, canine NGF tagged at the C-terminus with the Flag tag (canine, UniProt A0A8I3PYI3 122-241) (assay: SPR off-rate screen, Fab-SASA on BSA chip).
T1 construct: mature; Expressed with baculovirus technology; also called feline NGF (processed form identical)
T1 sequence (A0A8I3PYI3 entry or part of it): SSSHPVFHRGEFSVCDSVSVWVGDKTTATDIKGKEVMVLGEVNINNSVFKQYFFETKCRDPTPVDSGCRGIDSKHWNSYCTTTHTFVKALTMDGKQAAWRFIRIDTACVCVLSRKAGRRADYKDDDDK

Binder	Kd	Ratio WT-kd/clone-kd	koff	kon
B1	1.8 nM	2.21	0.000426 s⁻¹	237000 M⁻¹ s⁻¹
B2	5.45 nM	2.84	0.000332 s⁻¹	60900 M⁻¹ s⁻¹
B3	1.87 nM	2.11	0.000446 s⁻¹	239000 M⁻¹ s⁻¹
B4	2.17 nM	1.97	0.000478 s⁻¹	220000 M⁻¹ s⁻¹
B5	1.41 nM and 2.41 nM	–	0.000399 s⁻¹ and 0.000708 s⁻¹	284000 M⁻¹ s⁻¹ and 294000 M⁻¹ s⁻¹
B6	1.95 nM	1.48	0.000639 s⁻¹	328000 M⁻¹ s⁻¹
B7	1.85 nM	1.47	0.000643 s⁻¹	347000 M⁻¹ s⁻¹
B8	1.39 nM	1.71	0.000552 s⁻¹	398000 M⁻¹ s⁻¹
B9	1.23 nM	6.41	0.000147 s⁻¹	120000 M⁻¹ s⁻¹
B10	1.83 nM	2.25	0.000419 s⁻¹	229000 M⁻¹ s⁻¹
B11	1.31 nM	2.16	0.000436 s⁻¹	334000 M⁻¹ s⁻¹
B12	1.58 nM	2.26	0.000418 s⁻¹	264000 M⁻¹ s⁻¹
B13	0.935 nM	3.02	0.000312 s⁻¹	333000 M⁻¹ s⁻¹
B14	1.63 nM	1.7	0.000554 s⁻¹	340000 M⁻¹ s⁻¹
B15	2.42 nM	1.98	0.000476 s⁻¹	196000 M⁻¹ s⁻¹
B16	1.65 nM	1.68	0.00056 s⁻¹	340000 M⁻¹ s⁻¹
B17	1.47 nM	1.96	0.00048 s⁻¹	327000 M⁻¹ s⁻¹
B18	1.95 nM	1.5	0.000627 s⁻¹	322000 M⁻¹ s⁻¹
